{"source": "patent US20130260455A1", "about": "(ONCOMED PHARMACEUTICALS, published 2013)", "experiment_in_all_cases": "Biacore 2000 SPR; Notch protein amine-coupled to CM5 chip, antibody 1-100 nM injected", "key": {"[1]": {"target": "T1, recombinant human Notch2 (EGF10-15) (human, UniProt Q04721 375-605)", "T1 construct": "The whole entry for hNotch2 is named here; also called hNotch2 **N2(EGF 10-155)", "T1 sequence": "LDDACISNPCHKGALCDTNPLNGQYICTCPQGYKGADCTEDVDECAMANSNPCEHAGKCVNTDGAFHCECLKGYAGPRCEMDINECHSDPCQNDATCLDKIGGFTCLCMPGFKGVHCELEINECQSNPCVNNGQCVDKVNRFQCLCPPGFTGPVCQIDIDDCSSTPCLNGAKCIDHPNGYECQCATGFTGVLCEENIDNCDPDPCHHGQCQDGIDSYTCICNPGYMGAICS", "method": "(§1) The affinities for human and mouse Notch1, Notch2, Notch3, and Notch4 were determined using a Biacore 2000 instrument. Briefly, recombinant human and mouse Notch proteins (EGF10-15 for Notch1, 2, & 4; EGF9-14 for Notch3) were immobilized on a CM5 chip using standard amine based chemistry (NHS/EDC). For hNotch2. EGF1-12 was also tested for binding. Different antibody concentrations (1-100 nM) were injected over the protein surfaces and kinetic data were collected over time. The data was fit using the simultaneous global fit equation to yield dissociation constants (KD, nM) for each Notch (Table 3)."}, "[2]": {"target": "T2, recombinant human Notch3 (EGF9-14) (human, UniProt Q9UM47 351-580)", "T2 construct": "The whole entry for hNotch3 is named here; also called hNotch3; h-Notch3", "T2 sequence": "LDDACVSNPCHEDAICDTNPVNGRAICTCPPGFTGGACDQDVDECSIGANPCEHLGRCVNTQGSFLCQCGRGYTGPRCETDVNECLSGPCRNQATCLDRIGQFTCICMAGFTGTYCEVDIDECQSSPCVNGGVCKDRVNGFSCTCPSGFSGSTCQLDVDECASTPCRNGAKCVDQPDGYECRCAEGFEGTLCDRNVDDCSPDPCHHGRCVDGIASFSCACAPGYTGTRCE", "method": "as §1"}, "[3]": {"target": "T3, recombinant mouse Notch3 (EGF9-14) (mouse, UniProt Q61982 352-581)", "T3 construct": "domain: EGF9-14; also called mNotch3; m-Notch3", "T3 sequence (looked up)": "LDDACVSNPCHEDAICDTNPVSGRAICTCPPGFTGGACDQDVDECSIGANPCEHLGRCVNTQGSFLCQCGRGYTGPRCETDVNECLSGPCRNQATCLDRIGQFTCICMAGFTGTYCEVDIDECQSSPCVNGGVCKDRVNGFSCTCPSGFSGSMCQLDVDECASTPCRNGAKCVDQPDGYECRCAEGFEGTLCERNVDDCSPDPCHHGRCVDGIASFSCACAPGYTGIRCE", "method": "as §1"}, "[4]": {"target": "T4, recombinant human Notch2 (EGF1-12) (human, UniProt Q04721 26-493)", "T4 construct": "also called hNotch2 *N2(EGF1-12)", "T4 sequence": "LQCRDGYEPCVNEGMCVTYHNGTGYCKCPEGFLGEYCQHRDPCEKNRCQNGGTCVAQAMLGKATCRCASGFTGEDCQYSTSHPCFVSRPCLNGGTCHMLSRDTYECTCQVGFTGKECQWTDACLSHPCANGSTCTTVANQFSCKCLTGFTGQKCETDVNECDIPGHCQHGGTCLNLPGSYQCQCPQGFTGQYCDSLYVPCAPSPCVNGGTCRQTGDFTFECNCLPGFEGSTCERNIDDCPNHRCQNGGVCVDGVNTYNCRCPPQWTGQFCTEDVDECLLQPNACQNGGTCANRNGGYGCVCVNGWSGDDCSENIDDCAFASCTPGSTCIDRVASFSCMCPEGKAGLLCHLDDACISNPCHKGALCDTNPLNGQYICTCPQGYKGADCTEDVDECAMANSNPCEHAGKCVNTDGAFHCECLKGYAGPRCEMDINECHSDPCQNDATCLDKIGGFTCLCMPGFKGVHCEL", "method": "as §1"}, "[5]": {"target": "T5, recombinant mouse Notch2 (EGF10-15) (mouse, UniProt O35516 375-605)", "T5 construct": "domain: EGF10-15; also called mNotch2; m-Notch2", "T5 sequence (looked up)": "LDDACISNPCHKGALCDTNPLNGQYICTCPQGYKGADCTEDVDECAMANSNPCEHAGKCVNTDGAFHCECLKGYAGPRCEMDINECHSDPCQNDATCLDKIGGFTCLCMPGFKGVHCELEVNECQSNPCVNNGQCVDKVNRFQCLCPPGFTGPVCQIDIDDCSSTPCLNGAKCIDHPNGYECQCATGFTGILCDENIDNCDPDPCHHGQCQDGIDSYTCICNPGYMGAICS", "method": "as §1"}}}
{"binder": "59R1 IgG2 antibody (antibody, V domains shown, Human IgG2/kappa made in CHO cells; also called anti-Notch2/3 antibody 59R1) VH: QVQLVESGGGLVQPGGSLRLSCAASGFTFSSSGMSWVRQAPGKGLEWVSVIASSGSNTYYADSVKGRFTISRDNSKNTLYLQMNSLRAEDTAVYYCARGIFFAIWGQGTLVTVSS VL: not shown", "values": [{"measurement": "Kd", "setting": "[1]", "result": "< 0.1", "unit": "nM"}, {"measurement": "Kd", "setting": "[2]", "result": 0.12, "unit": "nM"}, {"measurement": "Kd", "setting": "[3]", "result": 0.13, "unit": "nM"}, {"measurement": "Kd", "setting": "[4]", "result": "< 0.1", "unit": "nM"}, {"measurement": "Kd", "setting": "[5]", "result": 0.35, "unit": "nM"}]}
